Test results taken from patent publication US20250135046A1, “CHOLECYSTOKININ B RECEPTOR-TARGETED COMPLEX AND A CONTRAST AGENT THEREOF” (National Atomic Research Institute, priority 2023, published 2025).
Square brackets hold non-standard residues; d marks the D form. Peptide text beside a SMILES is read from it. * marks the point of attachment. DOTA = O=C(O)CN1CCN(CC(=O)O)CCN(CC(=O)*)CCN(CC(=O)O)CC1; Butanoyl(4-(4-MePh)) = Cc1ccc(CCCC(=O)*)cc1; 4Amb = NCc1ccc(C(=O)O)cc1; Nle = CCCC[C@H](N)C(=O)O; Ahx = NCCCCCC(=O)O

System: tumor site where the cholecystokinin B receptor is overexpressed
Set-up: species or system nude mice
Conditions: mouse, in vivo
Method: Establishment of tumor animal model: Five-to six-week-old male experimental nude mice are purchased from the National Laboratory Animal Center (NLAC, TAIWAN) and bred in the animal facility. All animal experiment procedures are performed in accordance with the protocols approved by Institutional Animal Care and Use Committee (IACUC, TAIWAN). The experimental mice are kept at a temperature of 21-23° C., and a 12-hour light-dark cycle are used as the basis for the animal's physiological cycle. A431-CCK2R^(−) and A431-CCK2R^(+) cells (2×10^6 cells) are inoculated in the left and right hind limbs of the mice. After the tumors growing to 200-300 mm^3, the radioactive labeled complexes Lu-177-D1, Lu-177-D2, and Lu-177-D3 are used as radiotherapy drugs and start the treatments. The cholecystokinin B receptor-targeted radiotherapy drugs […], Lu-177-D2, and Lu-177-D3 are administrated to the mice respectively by tail vein injection. After different time periods of administration, such as 4, 24, and 48 hours, the coronal sections of three tumor mice are obtained (Refer to FIG. 3). By showing the comparison of NanoSPECT and CT fusion images at different time points, the accumulation of these radiotherapy drugs in the tumor tissue can be observed. Then measure and record the tumor size twice a week. […]

Row | SMILES | duration of drug accumulation in the tumor site
1 | CCCC[C@H](NC(=O)[C@H](Cc1c[nH]c2ccccc12)NC(=O)CNC(=O)[C@H](Cc1ccc(O)cc1)NC(=O)[C@H](C)NC(=O)[C@H](CCC(=O)O)NC(=O)[C@H](CCC(=O)O)NC(=O)[C@H](CCC(=O)O)NC(=O)[C@H](CCC(=O)O)NC(=O)[C@H](CCC(=O)O)NC(=O)[C@H](CCC(=O)O)NC(=O)c1ccc(CNC(=O)[C@H](CCCCNC(=O)CCCc2ccc(C)cc2)NC(=O)CN2CCN(CC(=O)O)CCN(CC(=O)O)CCN(CC(=O)O)CC2)cc1)C(=O)N[C@@H](CC(=O)O)C(=O)N[C@@H](Cc1ccccc1)C(N)=O [Lu-177-D3, metal not drawn] ({DOTA}-K(Butanoyl(4-(4-MePh)))[4Amb]EEEEEEAYGW[Nle]DF-NH2) | at least 48 hours
2 | CCCC[C@H](NC(=O)[C@H](Cc1c[nH]c2ccccc12)NC(=O)CNC(=O)[C@H](Cc1ccc(O)cc1)NC(=O)[C@H](C)NC(=O)[C@H](CCC(=O)O)NC(=O)[C@H](CCC(=O)O)NC(=O)[C@H](CCC(=O)O)NC(=O)[C@H](CCC(=O)O)NC(=O)[C@H](CCC(=O)O)NC(=O)[C@H](CCC(=O)O)NC(=O)CCCCCNC(=O)[C@H](CCCCNC(=O)CCCc1ccc(C)cc1)NC(=O)CN1CCN(CC(=O)O)CCN(CC(=O)O)CCN(CC(=O)O)CC1)C(=O)N[C@@H](CC(=O)O)C(=O)N[C@@H](Cc1ccccc1)C(N)=O [Lu-177-D1, metal not drawn] ({DOTA}-K(Butanoyl(4-(4-MePh)))[Ahx]EEEEEEAYGW[Nle]DF-NH2) | at least 48 hours
